Patent US20220177602A1 (MacroGenics, published 2022)

What was measured:
[1] = target: T1, soluble recombinant human FcγRIIIa (human, UniProt P08637 17-208, limits assumed); assay: indirect competitive ELISA, FcγRIIIa coated, competitor MGAH22-Bt, against margetuximab Reference Standard; stored 2-8° C., 1 month
T1 construct: Coated on the ELISA plate; also called CD16a; Fcγ Receptor subtype IIIa
Method: (§1) Margetuximab contains point mutations in the Fc-domain that enhance the interaction of the margetuximab constant region with some human Fc receptors, in particular the Fcγ Receptor subtype […] (FcγRIIIa), also referred to as CD16a. The potency of the Fc domain is assessed with an indirect competitive enzyme linked immunosorbent assay (ELISA) essentially as described. The quantification of the binding of margetuximab test article Fc to the FcγRIIIa is measured by its ability to compete against the binding of a biotin-labeled margetuximab competitor sample (MGAH22-Bt). To perform the assay, soluble recombinant human FcγRIIIa is coated to the solid phase (96-well assay plates). A dilution series of margetuximab Test Article (TA) in a constant concentration of MGAH22-Bt is allowed to bind to the immobilized FcγRIIIa. A dilution-series of the test article and of the margetuximab Reference Standard is analyzed in this manner on the same assay plate, in order to generate dose-response curves for both the test article and the margetuximab Reference Standard. […] Oxidation of the added AP substrate by the conjugated AP yields a color product that can be measured at 405±10 nm. The intensity (absorbance) of the color signal is measured using a microplate reader. […] Data are fitted to a constrained four-parameter logistic model to describe absorbance signal as a function of margetuximab concentration. […]

[2] = target: T1, soluble recombinant human FcγRIIIa; assay: indirect competitive ELISA, FcγRIIIa coated, competitor MGAH22-Bt, against margetuximab Reference Standard; stored 2-8° C., 0 months
Method: as §1

[3] = target: T1, soluble recombinant human FcγRIIIa; assay: indirect competitive ELISA, FcγRIIIa coated, competitor MGAH22-Bt, against margetuximab Reference Standard; stored 2-8° C., 3 months
Method: as §1

[4] = target: T1, soluble recombinant human FcγRIIIa; assay: indirect competitive ELISA, FcγRIIIa coated, competitor MGAH22-Bt, against margetuximab Reference Standard; stored 2-8° C., 6 months
Method: as §1

[5] = target: T1, soluble recombinant human FcγRIIIa; assay: indirect competitive ELISA, FcγRIIIa coated, competitor MGAH22-Bt, against margetuximab Reference Standard; stored 2-8° C., 9 months
Method: as §1

[6] = target: T1, soluble recombinant human FcγRIIIa; assay: indirect competitive ELISA, FcγRIIIa coated, competitor MGAH22-Bt, against margetuximab Reference Standard; stored 2-8° C., 12 months
Method: as §1

[7] = target: T1, soluble recombinant human FcγRIIIa; assay: indirect competitive ELISA, FcγRIIIa coated, competitor MGAH22-Bt, against margetuximab Reference Standard; stored 2-8° C., 18 months
Method: as §1

[8] = target: T1, soluble recombinant human FcγRIIIa; assay: indirect competitive ELISA, FcγRIIIa coated, competitor MGAH22-Bt, against margetuximab Reference Standard; stored 2-8° C., 24 months
Method: as §1

[9] = target: T1, soluble recombinant human FcγRIIIa; assay: indirect competitive ELISA, FcγRIIIa coated, competitor MGAH22-Bt, against margetuximab Reference Standard; stored 2-8° C., 30 months
Method: as §1

[10] = target: T1, soluble recombinant human FcγRIIIa; assay: indirect competitive ELISA, FcγRIIIa coated, competitor MGAH22-Bt, against margetuximab Reference Standard; stored 2-8° C., 33 months
Method: as §1

[11] = target: T1, soluble recombinant human FcγRIIIa; assay: indirect competitive ELISA, FcγRIIIa coated, competitor MGAH22-Bt, against margetuximab Reference Standard; stored 2-8° C., 36 months
Method: as §1

[12] = target: T1, soluble recombinant human FcγRIIIa; assay: indirect competitive ELISA, FcγRIIIa coated, competitor MGAH22-Bt, against margetuximab Reference Standard; stored 2-8° C., 48 months
Method: as §1

[13] = target: T1, soluble recombinant human FcγRIIIa; assay: indirect competitive ELISA, FcγRIIIa coated, competitor MGAH22-Bt, against margetuximab Reference Standard; stored 25 ± 2° C., column head 1 month
Method: as §1

[14] = target: T1, soluble recombinant human FcγRIIIa; assay: indirect competitive ELISA, FcγRIIIa coated, competitor MGAH22-Bt, against margetuximab Reference Standard; stored 25 ± 2° C., column head 0 months
Method: as §1

[15] = target: T1, soluble recombinant human FcγRIIIa; assay: indirect competitive ELISA, FcγRIIIa coated, competitor MGAH22-Bt, against margetuximab Reference Standard; stored 25 ± 2° C., column head 2 months
Method: as §1

[16] = target: T1, soluble recombinant human FcγRIIIa; assay: indirect competitive ELISA, FcγRIIIa coated, competitor MGAH22-Bt, against margetuximab Reference Standard; stored 25 ± 2° C., column head 3 months
Method: as §1

[17] = target: T1, soluble recombinant human FcγRIIIa; assay: indirect competitive ELISA, FcγRIIIa coated, competitor MGAH22-Bt, against margetuximab Reference Standard; stored 25 ± 2° C., column head 4 months
Method: as §1

[18] = target: T1, soluble recombinant human FcγRIIIa; assay: indirect competitive ELISA, FcγRIIIa coated, competitor MGAH22-Bt, against margetuximab Reference Standard; stored 25 ± 2° C., column head 5 months
Method: as §1

[19] = target: T1, soluble recombinant human FcγRIIIa; assay: indirect competitive ELISA, FcγRIIIa coated, competitor MGAH22-Bt, against margetuximab Reference Standard; stored 25 ± 2° C., column head 6 months
Method: as §1

T1 sequence (P08637 17-208 limits assumed): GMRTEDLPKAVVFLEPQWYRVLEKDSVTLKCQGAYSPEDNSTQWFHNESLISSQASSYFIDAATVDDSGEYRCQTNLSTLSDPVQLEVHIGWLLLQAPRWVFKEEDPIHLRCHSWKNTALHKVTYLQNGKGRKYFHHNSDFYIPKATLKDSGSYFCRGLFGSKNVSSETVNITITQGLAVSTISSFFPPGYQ

relative potency by FcγRIIIa Binding ELISA (100% x IC50 Reference Standard/IC50 Test Article) [1]: 81%
relative potency by FcγRIIIa Binding ELISA (100% x IC50 Reference Standard/IC50 Test Article) [2]: 76%
relative potency by FcγRIIIa Binding ELISA (100% x IC50 Reference Standard/IC50 Test Article) [3]: 92%
relative potency by FcγRIIIa Binding ELISA (100% x IC50 Reference Standard/IC50 Test Article) [4]: 103%
relative potency by FcγRIIIa Binding ELISA (100% x IC50 Reference Standard/IC50 Test Article) [5]: 106%
relative potency by FcγRIIIa Binding ELISA (100% x IC50 Reference Standard/IC50 Test Article) [6]: 110%
relative potency by FcγRIIIa Binding ELISA (100% x IC50 Reference Standard/IC50 Test Article) [7]: 105%
relative potency by FcγRIIIa Binding ELISA (100% x IC50 Reference Standard/IC50 Test Article) [8]: 100%
relative potency by FcγRIIIa Binding ELISA (100% x IC50 Reference Standard/IC50 Test Article) [9]: 103%
relative potency by FcγRIIIa Binding ELISA (100% x IC50 Reference Standard/IC50 Test Article) [10]: 107%
relative potency by FcγRIIIa Binding ELISA (100% x IC50 Reference Standard/IC50 Test Article) [11]: 107%
relative potency by FcγRIIIa Binding ELISA (100% x IC50 Reference Standard/IC50 Test Article) [12]: 101%
relative potency by FcγRIIIa Binding ELISA (100% x IC50 Reference Standard/IC50 Test Article) [13]: 82%
relative potency by FcγRIIIa Binding ELISA (100% x IC50 Reference Standard/IC50 Test Article) [14]: 76%
relative potency by FcγRIIIa Binding ELISA (100% x IC50 Reference Standard/IC50 Test Article) [15]: 100%
relative potency by FcγRIIIa Binding ELISA (100% x IC50 Reference Standard/IC50 Test Article) [16]: 99%
relative potency by FcγRIIIa Binding ELISA (100% x IC50 Reference Standard/IC50 Test Article) [17]: 104%
relative potency by FcγRIIIa Binding ELISA (100% x IC50 Reference Standard/IC50 Test Article) [18]: 76%
relative potency by FcγRIIIa Binding ELISA (100% x IC50 Reference Standard/IC50 Test Article) [19]: 82%
B1: margetuximab (antibody, human IgG1, kappa)
heavy: QVQLQQSGPELVKPGASLKLSCTASGFNIKDTYIHWVKQRPEQGLEWIGRIYPTNGYTRYDPKFQDKATITADTSSNTAYLQVSRLTSEDTAVYYCSRWGGDGFYAMDYWGQGASVTVSSASTKGPSVFPLAPSSKSTSGGTAALGCLVKDYFPEPVTVSWNSGALTSGVHTFPAVLQSSGLYSLSSVVTVPSSSLGTQTYICNVNHKPSNTKVDKRVEPKSCDKTHTCPPCPAPELVGGPSVFLLPPKPKDTLMISRTPEVTCVVVDVSHEDPEVKFNWYVDGVEVHNAKTKPPEEQYNSTLRVVSVLTVLHQDWLNGKEYKCKVSNKALPAPIEKTISKAKGQPREPQVYTLPPSRDELTKNQVSLTCLVKGFYPSDIAVEWESNGQPENNYKTTPLVLDSDGSFFLYSKLTVDKSRWQQGNVFSCSVMHEALHNHYTQKSLSLSPGK
light: DIVMTQSHKFMSTSVGDRVSITCKASQDVNTAVAWYQQKPGHSPKLLIYSASFRYTGVPDRFTGSRSGTDFTFTISSVQAEDLAVYYCQQHYTTPPTFGGGTKVEIKRTVAAPSVFIFPPSDEQLKSGTASVVCLLNNFYPREAKVQWKVDNALQSGNSQESVTEQDSKDSTYSLSSTLTLSKADYEKHKVYACEVTHQGLSSPVTKSFNRGEC
notes: Chimeric Fc-optimized IgG1/kappa monoclonal antibody; Tested as drug product Lot A in the F1 formulation after storage; also called MGAH22; Margetuximab DP Lot A; copies: 2 + 2
